What was measured:
CD19-ECD-GGSG-NLuc-AcV5 [1] = target: T1, CD19-ECD-GGSG-NLuc-AcV5 (human); assay: NLuc binding assay, SIR on Jurkat-NFAT-Luc cells
T1 construct: also called CD19-GGSG-NLuc-AcV5; Flag-CD19-GGSG-NLuc-AcV5
T1 chain: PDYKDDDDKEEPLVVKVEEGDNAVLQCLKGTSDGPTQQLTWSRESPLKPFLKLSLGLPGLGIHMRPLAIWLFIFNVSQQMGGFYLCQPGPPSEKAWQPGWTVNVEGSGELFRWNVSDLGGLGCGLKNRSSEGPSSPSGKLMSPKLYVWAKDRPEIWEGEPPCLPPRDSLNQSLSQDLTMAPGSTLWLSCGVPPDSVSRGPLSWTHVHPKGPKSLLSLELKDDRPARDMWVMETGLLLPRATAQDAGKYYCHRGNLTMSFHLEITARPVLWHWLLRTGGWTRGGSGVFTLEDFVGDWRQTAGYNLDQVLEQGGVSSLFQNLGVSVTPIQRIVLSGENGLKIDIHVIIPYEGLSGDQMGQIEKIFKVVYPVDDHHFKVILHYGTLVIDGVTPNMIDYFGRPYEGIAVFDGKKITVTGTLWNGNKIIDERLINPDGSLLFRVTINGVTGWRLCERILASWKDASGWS

CD19-ECD-GGSG-NLuc-AcV5 [2] = target: T1, CD19-ECD-GGSG-NLuc-AcV5; assay: NLuc binding assay, SIR on Jurkat-NFAT-GFP cells
CD19-ECD-GGSG-NLuc-AcV5 [3] = target: T1, CD19-ECD-GGSG-NLuc-AcV5; assay: NLuc binding assay, single chain unit in Jurkat-NFAT-GFP cells

B1: CD8SP-FMC63-vL-V5-[hTCRb-WT]-F-P2A-SP-FMC63-vH-Myc-[hTCRa-WT]-F-F2A-PAC (080815-F02)[SEQ ID NO:922] (other)
TCR beta: DIQMTQTTSSLSASLGDRVTISCRASQDISKYLNWYQQKPDGTVKLLIYHTSRLHSGVPSRFSGSGSGTDYSLTISNLEQEDIATYFCQQGNTLPYTFGGGTKLEITGKPIPNPLLGLDSTGSGEDLKNVFPPEVAVFEPSEAEISHTQKATLVCLATGFYPDHVELSWWVNGKEVHSGVSTDPQPLKEQPALNDSRYCLSSRLRVSATFWQNPRNHFRCQVQFYGLSENDEWTQDRAKPVTQIVSAEAWGRADCGFTSESYQQGVLSATILYEILLGKATLYAVLVSALVLMAMVKRKDSRG
TCR alpha: EVKLQESGPGLVAPSQSLSVTCTVSGVSLPDYGVSWIRQPPRKGLEWLGVIWGSETTYYNSALKSRLTIIKDNSKSQVFLKMNSLQTDDTAIYYCAKHYYYGGSYAMDYWGQGTSVTVSSEQKLISEEDGSGIQNPDPAVYQLRDSKSSDKSVCLFTDFDSQTNVSQSKDSDVYITDKTVLDMRSMDFKSNSAVAWSNKSDFACANAFNNSIIPEDTFFPSPESSCDVKLVEKSFETDTNLNFQNLSVIGFRILLLKVAGFNLLMTLRLWSS
notes: SIR with wild-type TCR constant chains; Polyprotein PRT 3157
Does B1 bind (CD19-ECD-GGSG-NLuc-AcV5 [1])?
Result: no binding

What about the “CD19-GGSG-NLuc (RLU)” value (CD19-ECD-GGSG-NLuc-AcV5 [2]) of the same binder?
Its value is 768 RLU.

B2: CD8SP-FMC63-vL-V5-[hTCRb-KACIAH]-F-P2A-PAC (other)
TCR beta: DIQMTQTTSSLSASLGDRVTISCRASQDISKYLNWYQQKPDGTVKLLIYHTSRLHSGVPSRFSGSGSGTDYSLTISNLEQEDIATYFCQQGNTLPYTFGGGTKLEITGKPIPNPLLGLDSTGSGEDLKNVFPPEVAVFEPSKAEIAHTQKATLVCLATGFYPDHVELSWWVNGKEVHSGVCTDPQPLKEQPALNDSRYCLSSRLRVSATFWQNPRNHFRCQVQFYGLSENDEWTQDRAKPVTQIVSAEAWGRADCGITSASYHQGVLSATILYEILLGKATLYAVLVSALVLMAMVKRKDSRG
notes: One functional polypeptide unit alone in Jurkat-NFAT-GFP cells; PRT 3148; also called 050216-S08
Does B2 bind (CD19-ECD-GGSG-NLuc-AcV5 [3])?
Result: no binding

B3: CD8SP-FMC63-vH-MYC-[TCRα-CSDVP]-F-F2A-BlastR (other)
TCR alpha: EVKLQESGPGLVAPSQSLSVTCTVSGVSLPDYGVSWIRQPPRKGLEWLGVIWGSETTYYNSALKSRLTIIKDNSKSQVFLKMNSLQTDDTAIYYCAKHYYYGGSYAMDYWGQGTSVTVSSEQKLISEEDGSGIQNPDPAVYQLRDSKSSDKSVCLFTDFDSQTNVSQSKDSDVYITDKCVLDMRSMDFKSNSAVAWSNKSDFACANAFNNSIIPEDTFFPSSDVPCDVKLVEKSFETDTNLNFQNLSVIGFRILLLKVAGFNLLMTLRLWSS
notes: One functional polypeptide unit alone in Jurkat-NFAT-GFP cells; PRT 3232; also called 041916-A02
Does B3 bind (CD19-ECD-GGSG-NLuc-AcV5 [3])?
Result: no binding

— US20260167693A1 (ANGELES THERAPEUTICS, published 2026)
